According to paper PMC5042407, “Structural Details of Ufd1 Binding to p97 and Their Functional Implications in ER-Associated Degradation” (PLoS ONE, 2016):

Target: T1, p97 N domain (21-196) (UniProt P55072 21-196)
T1 construct: p97 (VCP, valosin-containing protein), N-terminal domain, residues 21-196; The methods describe only the fusion proteins (pVFT3S vector, His6-thioredoxin cut off by TEV, E. coli Rosetta2 (DE3)); also called p97N^WT; N-terminal domain of p97; source: recombinant
Assay: ITC; p97 N domain (2.0 mM) injected into the cell with Ufd1 SHP peptide (0.050 mM), 25°C, one-site binding model
Conditions: both partners purified

T1 sequence (P55072 21-196): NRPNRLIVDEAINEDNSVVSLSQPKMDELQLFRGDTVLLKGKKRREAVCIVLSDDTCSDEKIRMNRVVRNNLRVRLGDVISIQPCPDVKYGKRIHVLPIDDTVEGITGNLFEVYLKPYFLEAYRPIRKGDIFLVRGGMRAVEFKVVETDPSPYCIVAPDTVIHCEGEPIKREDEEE

- Kd: 221 ± 36 µM
B1: Ufd1 SHP box peptide (225-235) (peptide)
peptide: FRAFSGSGNRL
notes: also called Ufd1SHP^WT; SHP box of Ufd1; source: synthetic peptide (Peptron, Korea)
